Results reported in article PMC11291303.

What was measured:
[1] = molecular target: turnip mosaic virus (TuMV) isolate YC5 VPg D113G (turnip mosaic virus isolate YC5); test: two-hybrid
[2] = molecular target: turnip mosaic virus (TuMV) isolate YC5 VPg R118H (turnip mosaic virus isolate YC5); test: two-hybrid

ARM-REPEAT SU… PROTEIN (AT5G62580) (natural protein)
percent reduction in binding strength compared to VPg^wt [1]: 28.8%

FRUCTOKINASE-LIKE 1 (FLN1) protein (natural protein)
percent weaker interaction than with VPg^wt [1]: 36.5%
percent weaker interaction than with VPg^wt [2]: 36.5%

ROS1-ASSOCIATED HOMEODOMAIN PROTEIN 1 (RHD1) (natural protein)
percent decrease in binding affinity compared to VPg^wt [1]: 22.6%
percent increase in binding affinity compared to VPg^wt [2]: 17.4%

PYRUVATE ORTHOPHOSPHATE DIKINASE (PPDK) REGULATORY PROTEIN 1 (RP1) (natural protein)
percent stronger binding than VPg^wt [2]: 47.1%

eukaryotic translation initiation factor (iso)4E (natural protein)
percent weaker interaction than with VPg^wt [1]: 90.5%
percent weaker interaction than with VPg^wt [2]: 90.5%

MYOSIN 3 (MYOS3) protein (natural protein)
percent stronger binding than VPg^wt [2]: 27.5%

MITOCHONDRIAL GLYCOPROTEIN FAMILY PROTEIN (AT1G15870) (natural protein)
percent stronger binding than VPg^wt [2]: 36.2%

PROLINE RICH MITOTIC CHECKPOINT CONTROL FACTOR (PRCC) (natural protein)
percent stronger binding than VPg^wt [2]: 22.5%
